One molecule from paper PMC11982451 (The Journal of Biological Chemistry, 2025) can be followed below.

In this assay the target is T1, 2CARD domain of human RIG-I, residues 1-200, recombinant (human, UniProt O95786 1-200).
T1 sequence (looked up): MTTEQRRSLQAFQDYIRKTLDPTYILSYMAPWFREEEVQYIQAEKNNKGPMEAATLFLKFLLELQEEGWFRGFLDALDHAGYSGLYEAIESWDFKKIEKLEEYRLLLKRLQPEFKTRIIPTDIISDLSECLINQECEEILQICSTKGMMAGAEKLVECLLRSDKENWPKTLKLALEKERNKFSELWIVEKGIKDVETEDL
The assay can be described thus: NMR titration.

B1: PRYSPRY domain (PSpry) of human TRIM25, residues 433-630, recombinant (domain or fragment, UniProt Q14258 433-630, looked up)
chain: STSLKAKVLETFLAKSRPELLEYYIKVILDYNTAHNKVALSECYTVASVAEMPQNYRPHPQRFTYCSQVLGLHCYKKGIHYWEVELQKNNFCGVGICYGSMNRQGPESRLGRNSASWCVEWFNTKISAWHNNVEKTLPSTKATRVGVLLNCDHGFVIFFAVADKVHLMYKFRVDFTEALYPAFWVFSAGATLSICSPK
Regarding B1, the binding result is given as “binds”.
